{"source": "patent US20230364000A1", "about": "“COMPOSITIONS COMPRISING COMBINATIONS OF COLLAGEN OR ELASTIN POLYPEPTIDES WITH ACTIVE INGREDIENTS AND METHODS OF USING SAME” (Geltor, Inc., priority 2020, published 2023)", "molecules": {"B1": {"name": "SEQ ID NO: 16: truncated human collagen type 21 alpha 1 without the DsbA secretion tag, recombinantly expressed in E. coli (protein)", "chain": "AGFPGLPGPAGEPGRHGKDGLMGSPGFKGEAGSPGAPGQDGTRGEPGIPGFPGNRGLMGQKGEIGPPGQQGKKGAPGMPGLMGSNGSPGQPGTPGSKGSKGEPGIQGMPGASGLKGEPGATGSPGEPGYMGLPGIQGKKGDKGNQGEKGIQGQKGENGRQGIPGQQGIQGHHGAKGERGEKGEPGVR"}}, "key": {"[1]": {"test_system": "facial skin", "assay": "Facial wrinkles, clinical study of Example 5", "format": "in vivo, human", "conditions": "topical facial serum 0.1%, n=15, FIG. 9", "from_the_text": "In a clinical study (n=15 subjects), subjects used a topical facial serum containing 0.1% of a polypeptide of SEQ ID NO: 16 for 8 weeks, after using a protein-free base facial serum for a 1-week washout period."}, "[2]": {"test_system": "human primary keratinocytes", "assay": "IL-la ELISA in UVB-irradiated keratinocytes", "format": "cell-based", "conditions": "40 mJ/cm^2 UVB, then 0.1% for 24 hours; compared to untreated UVB-irradiated keratinocytes; FIG. 3", "method": "Human primary keratinocytes were irradiated with 40 mJ/cm^2 UVB light, and then treated with 0.1% of a polypeptide of SEQ ID NO: 16 for 24 hours. Levels of the pro-inflammatory cytokines IL-la were determined by ELISA."}, "[3]": {"test_system": "human primary keratinocytes", "assay": "MTT viability of UVB-irradiated keratinocytes, pre- and post-irradiation treatment", "format": "cell-based", "conditions": "0.1% for 24 hours before and 24 hours after 40 mJ/cm^2 UVB; compared with UVB-irradiated keratinocytes without treatment; FIG. 5", "method": "To further assess the effects of treatment with a polypeptide of SEQ ID NO: 16 on UVB-irradiated keratinocytes, an experiment was performed with pre- and post-irradiation treatment. Human primary keratinocytes were pre-treated with 0.1% of a polypeptide of SEQ ID NO: 16 for 24 hours, irradiated with 40 mJ/cm^2 UVB light, and then treated again with 0.1% of a polypeptide of SEQ ID NO: 16 for an additional 24 hours. Cell viability was evaluated using the MTT metabolic colorimetric assay."}, "[4]": {"assay": "Oxygen radical absorbance capacity (ORAC) assay, cell-free", "format": "biochemical", "conditions": "0.1% solution", "method": "The antioxidant potential of a polypeptide of SEQ ID NO: 16 was assessed using the oxygen free radical absorbance capacity (ORAC) assay. The ORAC assay is a cell-free assay that uses a fluorescent readout to measure a product's antioxidant capacity. Data is reported in Trolox (Vitamin E) equivalents.\nA polypeptide of SEQ ID NO: 5 was also evaluated in the ORAC assay.\nAn oxygen radical absorbance capacity (ORAC) assay was performed to analyze the anti-oxidative capacity of a polypeptide according to SEQ ID NO: 52. The ORAC assay is a cell-free assay that uses a fluorescent readout to measure anti-oxidative capacity. Data is reported in Trolox (Vitamin E) equivalents (TEs)."}, "[5]": {"test_system": "facial skin", "assay": "SIAscope dermal collagen, clinical study of Example 3", "format": "in vivo, human", "conditions": "0.1% w/w topical formulation, Week 2", "method": "A clinical study using human subjects to determine the effects of a topical skincare product containing truncated human type 21 collagen (SEQ ID NO: 16) is performed. The research is performed according to U.S. and International standards of Good Clinical Practice (FDA and ICH guidelines) and applicable government regulations.\nA base formulation (control formulation) made of water, olive oil glycereth-8 esters, glycerin, coconut alkanes, hydroxyethyl acrylate/sodium acryloyldimethyl taurate copolymer, pentylene glycol, disodium EDTA, caprylyl glycol, chlorphenesin, phenoxyethanol is prepared. A formulation containing the truncated human type 21 collagen is prepared by adding sufficient collagen to prepare a topical formulation containing 0.1% w/w collagen.\nThe COSMETRICS™ SIAScope (Astron Clinica, Toft, UK) is a non-invasive optical skin imaging instrument using Spectrophotometric Intracutaneous Analysis (SIA), or chromophore mapping. The technique is based on a unique combination of dermatoscopy and contact remittance spectrophotometry. The hardware consists of a hand-held imaging probe attached to a laptop computer. The unit is placed in contact with the skin surface and high-intensity LED's illuminate the skin as discreet wavelengths of 400 to 1000 nm, spanning the visible spectrum and a small range of the near infrared spectrum. A digital image is captured for each wavelength. Three parametric chromophore maps are retrieved up to 2 mm in depth and 11 mm in circumference, one for each of the following parameters: epidermal melanin, dermal hemoglobin and dermal collagen.\nFor the purposes of this study, dermal collagen will be measured on the left or right cheek, per a prepared randomization code, at baseline and at weeks 2, 4, and 8. Assessment location will be recorded on a face map for each subject for consistency of measurements between visits.\nImprovements in skin hydration, firmness, and elasticity were statistically significant."}}}
{"molecule": "B1", "values": [{"measurement": "facial wrinkles", "setting": "[1]; 4 weeks vs baseline", "result": "reduction"}, {"measurement": "facial wrinkles", "setting": "[1]; 8 weeks vs baseline", "result": "reduction"}, {"measurement": "levels of IL-la", "setting": "[2]", "result": "lower levels"}, {"measurement": "cell viability (MTT)", "setting": "[3]", "result": "higher cell viability"}, {"measurement": "antioxidant properties, Trolox (Vitamin E) equivalents", "setting": "[4]", "result": 190, "unit": "μM Trolox"}, {"measurement": "SIAscope Collagen Mean Percent Improvement From BL mean", "setting": "[5]", "result": 6.72, "unit": "%"}, {"measurement": "SIAscope Collagen Percent of Subjects Showing Improvement From BL", "setting": "[5]", "result": 78.6, "unit": "%"}, {"measurement": "SIAscope Collagen Mean ± SD", "setting": "[5]; n 14, baseline 238.95 ± 11.60, P-value 0.004*", "result": "254.89 ± 19.35"}]}
